Test results as given in US20250340658A1 (TWIST BIOSCIENCE, published 2025).
Substitutions are numbered along the chain they refer to.

B1: GLP1R-221-065 (antibody, V domains shown)
VH: QVQLVESGGGVVQPGRSLRLSCAASGFTFNNYAMHWVRQAPGKGLEWVAVISYDRSNEYYADSVKGRFTISRDNSKNTLYLQMNSLRAEDTAVYYCAKHMSMQEGAVTGDGQAAKEFIAWLVKGRVRADLVGDAFDVWGQGTLVTVSS
VL: QSVLTQPPSVSAAPGQKVTISCSGTTSNIANNFVSWYQQLPGTAPKLLIYDHNKRPSGIPDRFSGSKSGTSATLGITGLQTGDEADYYCGTWDTSLSAGAFGGGTKLTVL
notes: IgG
B2: GLP1R-221-066 (antibody, V domains shown)
VH: B1 VH with D110E, A114I
VL: QSVLTQPPSVSAAPGQKVTISCSGSSSNIGNNYLSWYQQLPGTAPKLLIYENNKRPSGIPDRFSGSKSGTSATLGITGLQTGDEADYYCGIWDRSLSAWVFGGGTKLTVL
notes: IgG
B3: GLP1R-221-017 (antibody, V domains shown)
VH: B1 VH with N30S, N31D, A33G, M34V, V50F, R55E, E58K, D110E, G111Y
VL: QSVLTQPPSVSAAPGQKVTISCSGSSSNIGNTYVSWYQQLPGTAPKLLIYDDYKRPSGIPDRFSGSKSGTSATLGITGLQTGDEADYYCATWDATLNTGVFGGGTKLTVL
notes: IgG
B4: GLP1R-221-033 (antibody, V domains shown)
VH: B1 VH with T28S, N30S, Y53H, E58K, D110E, E116D
VL: B3 VL with T32E, D52N, Y53N, P56V, A94T, T95S, T98V
notes: IgG
B5: GLP1R-221-084 (antibody, V domains shown)
VH: B1 VH with T28A, N30S, A33G, Y53S, R55E, S56N, E58K, D110E, G111M
VL: B2 VL with G30A, N31D, L34V, K54R, I91T, R94V, A98V, W99G, V100M
notes: IgG
B6: GLP1R-221-075 (antibody, V domains shown)
VH: B1 VH with N30S, A33P, R55E, S56T, E58K, D110E, R125I
VL: B2 VL with S26G, Y33D, L34V, E51D, N53D, S57A, I91T, R94T, A98N, W99Y
notes: IgG
B7: GLP1R-221-009 (antibody, V domains shown)
VH: B1 VH with T28I, N30S, A33G, Y53D, D54E, R55G, E58K, D110A
VL: B3 VL with T32Q, Y53H, A90G, A94T, T95S, N97S, T98V, V100E
notes: IgG
B8: GLP1R-221-034 (antibody, V domains shown)
VH: B1 VH with T28P, N30S, A33G, Y53H, E58K, D110E, A114V
VL: B2 VL with Y33P, L34V, N53D, K54N, G90A, I91T, S95G, A98T, W99G
notes: IgG
B9: GLP1R-221-076 (antibody, V domains shown)
VH: B1 VH with A33P, R55E, S56T, E58K, D110E, R125I
VL: B2 VL with S25T, Y33D, L34V, P56H, G90L, I91T, R94H, S97T, W99Y
notes: IgG
B10: GLP1R-221-092 (antibody, V domains shown)
VH: B1 VH with T28I, A33G, V50F, D54G, R55G, E58K, D110E, A114V
VL: B1 VL with H52N, S57P, A98V, A100M
notes: IgG

biological target: T1, full length human GLP-1R with N-terminal FLAG tag and C-terminal GFP tag, on CHO cells (human, UniProt P43220 24-463); assay: flow cytometry titration, CHO GLP1R cells
T1 construct: whole, on cells; the cell line itself is tied to UniProt P43220; also called FLAG-GLP-1R-GFP; CHO-GLP-1R
Experimental: (§1) GLP-1R IgG clones were tested in a binding assay coupled to flow cytometry analysis as follows: FLAG-GLP-1R-GFP expressing CHO cells (CHO-GLP-1R) and CHO-parent cells were incubated with 100 nM IgG for 1 h on ice, washed three times and incubated with Alexa 647 conjugated goat-anti-human antibody (1:200) (Jackson ImmunoResearch Laboratories, 109-605-044) for 30 min on ice, followed by three washes, centrifuging to pellet the cells between each washing step. All incubations and washes were in buffer containing PBS+1% BSA. […] Cells were analyzed by flow cytometry and hits (a hit is an IgG that specifically binds to CHO-GLP-1R) were identified by measuring the GFP signal against the Alexa 647 signal. Flow cytometry data of binding assays with 100 nM IgG are presented as dot plots. Analyses of binding assays with IgG titrations are presented as binding curves plotting IgG concentrations against MFI (mean fluorescence intensity).

Bmax	EC50 [nM]	Binder
798000		B1
172000	57.4	B2
250000	27.6	B3
167000	9.04	B4
287000	4.09	B5
213000		B6
215000	12.5	B7
933000		B8
799000		B9
145000	13.3	B10

biological target: T1, full length human GLP-1R with …; assay: flow cytometry, expressing vs parent CHO cells
Experimental: as §1

MFI Ratio	Binder
914	B1
928	B2
1480	B3
1020	B4
1070	B5
1170	B6
1120	B7
711	B8
747	B9
712	B10

biological target: T1, full length human GLP-1R with …; assay: flow cytometry, expressing minus parent CHO cells
Experimental: as §1

Subtraction	Binder
272000	B1
222000	B2
240000	B3
240000	B4
221000	B5
242000	B6
220000	B7
223000	B8
236000	B9
232000	B10

biological target: T1, full length human GLP-1R with …; assay: flow cytometry, expressing vs parent CHO cells; remark: another data set of the same source
Experimental: as §1

MFI Ratio	Binder
915	B1
928	B2
1480	B3
1020	B4
1070	B5
1170	B6
1120	B7
711	B8
747	B9
712	B10

biological target: T1, full length human GLP-1R with …; assay: flow cytometry, GLP1R-expressing CHO cells
Experimental: as §1

Median RL1-H of Expressing Singlets	Binder
273000	B1
223000	B2
241000	B3
240000	B4
221000	B5
242000	B6
221000	B7
223000	B8
236000	B9
232000	B10
